Target: … (MimA2) presented by H-2D^b on peptide-pulsed RMA-S cells (mouse) (UniProt P01899)
Assay: cell-based or functional assay

… (MimA2) presented by H-2D^b on peptide-pulsed RMA-S cells (mouse), sequence (P01899 25-362): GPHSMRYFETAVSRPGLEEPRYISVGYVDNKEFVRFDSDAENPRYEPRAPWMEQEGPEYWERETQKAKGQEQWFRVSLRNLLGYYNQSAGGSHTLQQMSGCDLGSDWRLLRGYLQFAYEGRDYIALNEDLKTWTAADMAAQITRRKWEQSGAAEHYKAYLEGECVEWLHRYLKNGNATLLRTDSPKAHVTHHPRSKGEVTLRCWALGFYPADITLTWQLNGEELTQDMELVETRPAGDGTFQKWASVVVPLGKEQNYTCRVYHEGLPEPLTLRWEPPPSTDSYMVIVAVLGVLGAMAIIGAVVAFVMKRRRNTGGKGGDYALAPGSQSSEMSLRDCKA

Work on “TCR of the β cell-autoreactive CD8+ T cell clone AI4 (Vα8/Vβ2)” yielded a peptide concentration giving half-maximal activity in the AI4 cytotoxicity assay (51Cr release, E:T 40, RMA-S targets) of 10 pM.

— US20100009923A1
